US12534541B2, “Anti-PTK7 antibody and uses thereof” (MABCARE THERAPEUTICS, priority 2023, dated 2026)

Columns and labels:
[1] = system: small cell lung cancer PDX LD1-2025-362797; experiment: In vivo anti-tumor activity against human small cell lung cancer PDX LD1-2025-362797; details: NU/NU mice, i.v. 5 mg/kg, 1 dose, vs negative control
Method: 6-week-old NU/NU mice, female, weighing 18-21 g, were purchased from Beijing Vital River Laboratory Animal Technology Co., Ltd. The mice were subcutaneously inoculated with small cell lung cancer tumor mass (specimen no. 362797, obtained from Xi'an LIDE Biotech Co. Ltd.). When the average tumor volume reached 150 mm^3, the antibody-drug conjugates Ab13-T1000-exatecan and h6M24-T1000-exatecan as prepared in Example 5 were administered intravenously at a dose of 10 mg/kg, respectively, the antibody-drug conjugate h6M24-vc0101 as prepared in Example 8 was administered intravenously at a dose of 5 mg/kg, and a negative control Vehicle group was set and administered intravenously with PBS at an equal dose, once a week for a total of 1 dose. After dosing, the tumor volume was measured twice a week using a vernier caliper and calculated according to the following formula: TV=(length*width^2)/2.

[2] = system: colorectal cancer PDX LD1-2038-361980; experiment: In vivo anti-tumor activity against human colorectal cancer PDX LD1-2038-361980; details: NU/NU mice, i.v. 5 mg/kg, once a week, 2 doses, vs negative control
Method: 6-week-old NU/NU mice, female, weighing 18-21 g, were purchased from Beijing Vital River Laboratory Animal Technology Co., Ltd. The mice were subcutaneously inoculated with colorectal cancer tumor mass (specimen no. 361980, obtained from Xi'an LIDE Biotech Co. Ltd.). When the average tumor volume reached 150 mm^3, the antibody-drug conjugate Ab13-T1000-exatecan as prepared in Example 5 was administered intravenously at a dose of 10 mg/kg, the antibody-drug conjugate h6M24-vc0101 as prepared in Example 8 was administered intravenously at a dose of 5 mg/kg, and a negative control Vehicle group was set and administered intravenously with PBS at an equal dose, once a week for a total of 2 doses. After dosing, the tumor volume was measured twice a week using a vernier caliper and calculated according to the following formula: TV=(length*width^2)/2.

B1: h6M24-vc0101: control drug: h6M24 (cofetuzumab) linked to Aur0101 via mc-VC-PAB linker, DAR about 4 (conjugate, chains of the INN, looked up)
VH: QVQLVQSGPEVKKPGASVKVSCKASGYTFTDYAVHWVRQAPGKRLEWIGVISTYNDYTYNNQDFKGRVTMTRDTSASTAYMELSRLRSEDTAVYYCARGNSYFYALDYWGQGTSVTVSS
VL: EIVLTQSPATLSLSPGERATLSCRASESVDSYGKSFMHWYQQKPGQAPRLLIYRASNLESGIPARFSGSGSGTDFTLTISSLEPEDFAVYYCQQSNEDPWTFGGGTKLEIK
modifications: Aur0101 via mc-VC-PAB linker, DAR 4
[1]
  tumor growth inhibition (tumor volume over time): does not produce any tumor growth inhibitory effect
[2]
  tumor growth inhibition (tumor volume over time): does not produce any tumor growth inhibitory effect
